How the values were obtained:
[1] = target: human FcRn (human) (UniProt P55899); experiment: SPR; steady-state equilibrium binding assay on ProteOn; human FcRn at pH 6
[2] = target: human FcγRIIa (human) (UniProt P12318); experiment: SPR; steady-state equilibrium binding assay on ProteOn; human Fcγ receptors
Chain of UniProt P12318 (P12318 34-317): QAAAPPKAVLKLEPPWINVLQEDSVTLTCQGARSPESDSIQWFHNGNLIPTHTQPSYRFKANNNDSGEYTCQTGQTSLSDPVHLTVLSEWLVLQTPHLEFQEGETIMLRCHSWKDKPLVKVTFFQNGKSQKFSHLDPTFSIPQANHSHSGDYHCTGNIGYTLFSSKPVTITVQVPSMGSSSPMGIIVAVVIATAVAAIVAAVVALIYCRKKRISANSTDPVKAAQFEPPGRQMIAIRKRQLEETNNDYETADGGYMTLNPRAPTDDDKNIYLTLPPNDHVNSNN

Chain of UniProt P55899 (P55899 24-365): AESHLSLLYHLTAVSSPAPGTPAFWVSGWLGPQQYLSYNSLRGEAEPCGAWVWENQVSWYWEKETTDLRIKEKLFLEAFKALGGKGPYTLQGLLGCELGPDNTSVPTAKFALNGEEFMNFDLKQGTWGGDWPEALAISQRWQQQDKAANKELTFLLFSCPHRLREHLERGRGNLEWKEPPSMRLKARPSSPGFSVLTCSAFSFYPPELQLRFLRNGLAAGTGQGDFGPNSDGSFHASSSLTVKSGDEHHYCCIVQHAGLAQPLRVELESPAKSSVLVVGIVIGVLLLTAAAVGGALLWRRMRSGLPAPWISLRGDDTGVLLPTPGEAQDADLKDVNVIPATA

Kd [1]: 6.2 µM | Kd [2]: 1.4 µM
Substance: isotype control of human IgG4 S228P (antibody)

— PMC8452627
